Measured values as given in PMC8916728 (2022).

T1: NRP2 a2b1b2 (human neuropilin 2 residues 145 to 595, monomeric IgG1 Fc tag) (human, UniProt O60462 145-595)
T1 chain: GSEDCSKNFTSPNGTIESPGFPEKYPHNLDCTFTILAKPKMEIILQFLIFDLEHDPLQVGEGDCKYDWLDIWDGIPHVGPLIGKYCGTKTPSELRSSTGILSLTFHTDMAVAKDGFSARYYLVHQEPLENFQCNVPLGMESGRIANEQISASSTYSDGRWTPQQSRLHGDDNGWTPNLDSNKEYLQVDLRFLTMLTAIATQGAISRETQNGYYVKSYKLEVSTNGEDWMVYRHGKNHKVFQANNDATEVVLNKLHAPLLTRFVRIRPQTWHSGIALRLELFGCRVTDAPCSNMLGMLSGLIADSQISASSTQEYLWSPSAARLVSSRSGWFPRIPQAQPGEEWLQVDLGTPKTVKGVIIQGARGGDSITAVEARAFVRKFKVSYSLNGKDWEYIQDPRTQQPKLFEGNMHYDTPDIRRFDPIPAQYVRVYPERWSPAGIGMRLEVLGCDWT

T2: monoFc-tagged NRP2 (human neuropilin 2 a1a2b1b2, residues 23 to 595) (human, UniProt O60462 23-595)
T2 chain: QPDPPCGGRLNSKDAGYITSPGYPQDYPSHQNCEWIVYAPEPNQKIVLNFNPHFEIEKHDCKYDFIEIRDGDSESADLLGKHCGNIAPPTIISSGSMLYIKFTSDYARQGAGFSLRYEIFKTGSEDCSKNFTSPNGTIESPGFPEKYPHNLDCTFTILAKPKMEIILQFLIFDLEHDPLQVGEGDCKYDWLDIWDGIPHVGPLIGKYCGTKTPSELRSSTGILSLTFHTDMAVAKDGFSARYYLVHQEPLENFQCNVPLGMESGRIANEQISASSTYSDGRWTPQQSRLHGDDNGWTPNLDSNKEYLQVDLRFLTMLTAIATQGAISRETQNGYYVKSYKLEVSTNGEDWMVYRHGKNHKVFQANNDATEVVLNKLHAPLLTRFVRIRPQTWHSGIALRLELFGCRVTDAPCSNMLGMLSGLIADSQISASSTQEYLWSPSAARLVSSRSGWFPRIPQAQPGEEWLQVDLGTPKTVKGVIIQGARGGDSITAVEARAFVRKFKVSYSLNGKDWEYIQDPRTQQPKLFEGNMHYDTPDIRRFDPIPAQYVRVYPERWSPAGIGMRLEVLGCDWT

B1: soluble ectodomain of the HCMV Pentamer (strain Towne) (complex)
chain 1: RYGAEAISEPLDKAFHLLLNTYGRPIRFLRENTTQCTYNSSLRNSTVVRENAISFNFFQSYNQYYVFHMPRCLFAGPLAEQFLNQVDLTETLERYQQRLNTYALVSKDLASYRSFSQQLKAQDSLGEQPTTVPPPIDLSIPHVWMPPQTTPHGWTESHTTSGLHRPHFNQTCILFDGHDLLFSTVTPCLHQGFYLIDELRYVKITLTEDFFVVTVSIDDDTPMLLIFGHLPRVLFKAPYQRDNFILRQTEKHELLVLVKKDQLNRHSYLKDPDFLDAALDFNYLDLSALLRNSFHRYAVDVLKSGRCQMLDRRTVEMAFAYALALFAAARQEEAGAQVSVPRALDRQAALLQIQEFMITCLSQTPPRTTLLLYPTAVDLAKRALWTPNQITDITSLVRLVYILSKQNQQHLIPQWALRQIADFALKLHKTHLASFLSAFARQELYLMGSLVHSMLVHTTERREIFIVETGLCSLAELSHFTQLLAHPHHEYLSDLYTPCSSSGRRDHSLERLTRLFPDATVPTTVPAALSILSTMQPSTLETFPDLFCLPLGESFSALTVSEHVSYVVTNQYLIKGISYPVSTTVVGQSLIITQTDSQTKCELTRNMHTTHSITAALNISLENCAFCQSALLEYDDTQGVINIMYMHDSDDVLFALDPYNEVVVSSPRTHYLMLLKNGTVLEVTDVVVDATDSRL
chain 2: VAVSVAPTAAEKVPAECPELTRRCLLGEVFQGDKYESWLRPLVNVTRRDGPLSQLIRYRPVTPEAANSVLLDDAFLDTLALLYNNPDQLRALLTLLSSDTAPRWMTVMRGYSECGDGSPAVYTCVDDLCRGYDLTRLSYGRSIFTEHVLGFELVPPSLFNVVVAIRNEATRTNRAVRLPVSTAAAPEGITLFYGLYNAVKEFCLRHQLDPPLLRHLDKYYAGLPPELKQTRVNLPAHSRYGPQAVDAR
chain 3: RVPRVRAEECCEFINVNHPPERCYDFKMCNRFTVALRCPDGEVCYSPEKTAEIRGIVTTMTHSLTRQVVHNKLTSCNYNPLYLEADGRIRCGKVNDKAQYLLGAAGSVPYRWINLEYDKITRIVGLDQYLESVKKHKRLDVCRAKMGYMLQ
chain 4: SPWSTLTANQNPSPPWSKLTYSKPHDAATFYCPFLYPSPPRSPLQFSGFQQVSTGPECRNETLYLLYNREGQTLVERSSTWVKKVIWYLSGRNQTILQRMPQTASKPSDGNVQISVEDAKIFGAHMVPKQTKLLRFVVNDGTRYQMCVMKLESWAHVFRDYSVSFQVRLTFTEANNQTYTFCTHPNLIV
chain 5: QCQRETAEKNDYYRVPHYWDACSRALPDQTRYKYVEQLVDLTLNYHYDASHGLDNFDVLKRINVTEVSLLISDFRRQNRRGGTNKRTTFNAAGSLAPHARSLEFSVRLFAN

Key:
[1] = molecular target: B1; assay: SPR
[2] = molecular target: B1; assay: SPR
[3] = molecular target: T1, NRP2 a2b1b2 (human neuropilin 2 …); assay: BLI; 2 mM Ca2+
[4] = molecular target: T2, monoFc-tagged NRP2 (human neuropilin 2 …); assay: BLI; 2 mM Ca2+
[5] = molecular target: 1-32–captured Pentamer (HCMV Pentamer bound by 1-32 IgG) (human cytomegalovirus (strain Towne) | …, UniProt P17176 24-718); assay: BLI; Pentamer captured by 1-32 IgG

Row | Binder | Kd [2] [nM] | other results
1 | Fab 1-32 (Fab, V domains shown) VH: QVKLVESGGGVVQPGRSLRLSCAGSGFAFDNYAMHWVRQAPGKGLEWVAVISLEGRNKYYAGPAKGRFSISRDNSRNTVHLQMNSLRPEDTAVYFCARDMRYYYDSNGHYRNRYGMDVWGQGTTVIVSS VL: DIQMTQSPSSLSASVGDSVTITCQASQDINQFVSWYQQKPGKPPKLLIYDASNLESGVPSRFSGSGSGTHFTFTISSLQPDDIATYYCQQYENLFTFGPGTKVDIK | 2.82 | koff [1]: 0.000264 s⁻¹
2 | B1 |  | koff [3]: 0.00104 s⁻¹; koff [4]: 0.000271 s⁻¹
3 | Fab 2-25 (Fab, V domains shown) VH: QVQLVESGAEVKKPGASVKVSCKASGYTFTNYAIHWVRQAPGQRLEWMGWINAGRGNTKYSQKFQGRVTITRDTSASTAYMELSSLRSEDAAVYFCARDESTGDYYYYMDVWGKGTTVTVSS VL: SYELTQPPSVSVSPGQTASITCSGDRLDDKYASWYQQKAGQSPVLVIYQDNKRPSGIPERFSGSNSGNTATLTISGTQAMDEADYYCQAWDSDTYVFGTGTKVTVL | 1.08 | 
4 | Fab 1-103 (Fab, V domains shown) VH: QLQLQESGPGLVKPSETLSLTCSVSGDAISGSNYYWGWIRQPPGKGLQWIGSIYHTGSTFYNPSFSSRVTLSVDTSKNQFSLKLISVNAADTAVYYCARRIRGYSGTYDWGQGTLVTVSS VL: DIQLTQSPSFLSASVGDRVTITCRASQDISSYVAWYQQKPGNAPKLLISSASTLPSGVPSRFSGSRSGTDFTLTISSLQPEDFATYYCQQLNNFGPGTTVDIK | 3.11 | 
5 | untagged NRP2 (receptor) RGQPDPPCGGRLNSKDAGYITSPGYPQDYPSHQNCEWIVYAPEPNQKIVLNFNPHFEIEKHDCKYDFIEIRDGDSESADLLGKHCGNIAPPTIISSGSMLYIKFTSDYARQGAGFSLRYEIFKTGSEDCSKNFTSPNGTIESPGFPEKYPHNLDCTFTILAKPKMEIILQFLIFDLEHDPLQVGEGDCKYDWLDIWDGIPHVGPLIGKYCGTKTPSELRSSTGILSLTFHTDMAVAKDGFSARYYLVHQEPLENFQCNVPLGMESGRIANEQISASSTYSDGRWTPQQSRLHGDDNGWTPNLDSNKEYLQVDLRFLTMLTAIATQGAISRETQNGYYVKSYKLEVSTNGEDWMVYRHGKNHKVFQANNDATEVVLNKLHAPLLTRFVRIRPQTWHSGIALRLELFGCRVTDAPCSNMLGMLSGLIADSQISASSTQEYLWSPSAARLVSSRSGWFPRIPQAQPGEEWLQVDLGTPKTVKGVIIQGARGGDSITAVEARAFVRKFKVSYSLNGKDWEYIQDPRTQQPKLFEGNMHYDTPDIRRFDPIPAQYVRVYPERWSPAGIGMRLEVLGCDWTDSKPTVETLGPTVKSEETTTPYPTEEEATECGENCSFEDDKDLQLPSGFNCNFDFLEEPCGWMYDHAKWLRTTWASSSSPNDRTFPDDRNFLRLQSDSQREGQYARLISPPVHLPRSPVCMEFQYQATGGRGVALQVVREASQESKLLWVIREDQGGEWKHGRIILPSYDMEYQIVFEGVIGKGRSGEIAIDDIRISTDVPLENCMEPISAFAGENFKVDIPEIHEREGYEDEIDDEYEVDWSNSSSATSGSGAPSTDKEKSWLYTLDPILITIIAMSSLGVLLGATCAGLLLYCTCSYSGLSSRSCTTLENYNFELYDGLKHKVKMNHQKCCSEA |  | koff [5]: 0.00177 s⁻¹
6 | Fab 2-18 (Fab, V domains shown) VH: EVQLVQSGGGLVQPGGSLRVSCAASGFSFSDHDMDWVRQAPGKGFEWVGRSRNKDYSSTTEYAASVRGRFTISRHTSEDLLYLELNTVKTEDTAVYFCARGPHHSDRSGYYGGTFDIWGQGTMVTVSS VL: DIQMTQSPSSVSASVGDRVIITCRASQGISSWLAWYQQKPGRAPRLLIYDASTLESGVPSRFSGRGSGTEFTLTINSLQPEDFATYYCQQGNMFPLTFGGGTKVEIK | 0.0493 | 
